Source: IntAct's records for PubMed 16099979

B1: Protein FD (Arabidopsis thaliana (Mouse-ear cress)), Q84JK2 (parent)
chain: MLSSAKHQRNHRLSATNKNQTLTKVSSISSSSPSSSSSSSSTSSSSPLPSQDSQAQKRSLVTMEEVWNDINLASIHHLNRHSPHPQHNHEPRFRGQNHHNQNPNSIFQDFLKGSLNQEPAPTSQTTGSAPNGDSTTVTVLYSSPFPPPATVLSLNSGAGFEFLDNQDPLVTSNSNLHTHHHLSNAHAFNTSFEALVPSSSFGKKRGQDSNEGSGNRRHKRMIKNRESAARSRARKQAYTNELELEVAHLQAENARLKRQQDQLKMAAAIQQPKKNTLQRSSTAPF

Variants of: B1
Conditions: with ft_arath FT

Variant	effect of a mutation on the interaction
T282A	decreasing interaction
T282S	decreasing interaction
